Results: PMC7737607 (The EMBO Journal, 2020)

Target: T1, Cap-Gly-CC1a-p150Glued-V5 (human, UniProt Q14203-1 1-358)
T1 construct: ATUM ordered gene ID #391071; also called Cap-Gly-CC1-p150Glued-V5; p150Glued-V5-tagged fragment; source: generated and purchased from ATUM Bio, purified (streptavidin-column based methods)
Assay: pull-down; purified proteins mixed 1:1, with or without FLAG-EB1 WT or ΔY C-term, 1 h at 4°C in 20 mM Tris-HCl pH 7.4, 350 mM NaCl, 1 mM 2-mercaptoethanol; p150Glued-V5 fragment captured on anti-V5 antibody-coated beads, 2 h at 4°C; Western blot
Conditions: both partners purified

T1 sequence (Q14203 1-358): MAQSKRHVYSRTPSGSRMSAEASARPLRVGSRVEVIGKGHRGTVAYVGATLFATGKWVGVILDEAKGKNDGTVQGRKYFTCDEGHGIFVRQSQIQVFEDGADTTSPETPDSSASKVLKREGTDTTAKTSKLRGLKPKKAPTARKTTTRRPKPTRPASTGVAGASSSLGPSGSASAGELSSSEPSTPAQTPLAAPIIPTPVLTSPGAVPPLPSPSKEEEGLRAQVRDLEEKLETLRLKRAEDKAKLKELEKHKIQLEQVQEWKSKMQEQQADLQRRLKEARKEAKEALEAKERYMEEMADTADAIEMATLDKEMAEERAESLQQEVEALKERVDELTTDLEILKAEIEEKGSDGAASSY

B1: FLAG-EB1 WT C-term (domain or fragment, human, UniProt Q15691 191-268, looked up)
chain: DEAAELMQQVNVLKLTVEDLEKERDFYFGKLRNIELICQENEGENDPVLQRIVDILYATDEGFVIPDEGGPQEEQEEY
notes: ATUM ordered gene ID #394359; also called FLAG-EB1 C-terminal; FLAG-tagged EB1 WT; source: generated and purchased from ATUM Bio, purified (streptavidin-column based methods)
  binding result: binds
